Measurements reported in the Human Domainome abundance scans (Beltran et al. 2025).

B1: Triacylglycerol hydrolase DDHD2, residues 389 to 447; numbered along this chain, O94830 (parent)
chain: TLEEDLKKLQLSEFFDIFEKEKVDKEALALCTDRDLQEIGIPLGPRKKILNYFSTRKNS

Variants of: B1
Experiment: abundance fitness (aPCA) (normalised: wild type 0, dead -1); higher = more abundant; growth selection in yeast, the domain comes from the species named
Details: Homo sapiens

Abundance fitness of substitutions, site by site:
F14: Q -0.205 | I -0.365 | R -0.671 | H -0.599 | G -0.775 | T -0.521 | W -0.179
S59: N -0.569 | P -0.064 | M -0.068 | W -0.074 | Q -0.293 | K -0.547 | L -0.473 | G -0.151 | T -0.085
T32: Q -0.251 | V -0.631 | E 0.056 | K 0.083 | M -0.299 | I -0.924 | G -0.337 | F -1.18 | S -0.053
D24: S 0.466 | Q -0.044 | T 0.494 | K -0.115 | N 0.155 | A 0.026
K7: P -0.689 | L -0.203 | A -0.032 | S -0.08
L50: N -0.483 | Q -0.345
N58: Y -0.08 | F -0.422 | H -0.377 | C -0.252 | M 0.208 | V -0.015 | E 0.078
D5: E 0.123 | Q -0.062 | V -0.343 | P -0.904 | F 0.032 | R -0.568 | G -0.536
D16: F 0.015 | Q 0.106 | I -0.156 | E 0.075 | M -0.228 | A 0.026 | K 0.089 | P -0.145 | H -0.033
G44: Q 0.333 | P -0.079 | F -0.151 | R -0.056 | L 0.1 | Y -0.122
I49: D -0.125 | F -0.765 | G -0.593 | M -0.09 | R -0.489 | S -0.046
L30: T 0.556 | G 0.452 | H 0.377 | N 0.687 | C 0.593 | D 0.423 | R 0.581 | Q 0.238 | W 0.263
E38: A 0.181 | D 0.067 | S -0.369 | H -0.302
Q10: M -0.1 | C -0.101 | V -0.667 | D 0.069 | L -0.52 | H -0.138 | E 0.119
P42: C -0.842 | M -0.649 | V -1.01 | F -1.17 | N -0.35 | T -0.839 | G -0.587 | A -0.518 | K -0.737
K48: S -0.075 | T 0.374 | R 0.088 | L -0.007 | G -0.698 | E 0.036 | W -0.946
A27: L -0.039 | S -0.096 | V 0.047 | T 0.057 | G 0.316
L36: C -0.363 | Q -0.448 | E -0.363 | T -0.298
E3: M -0.002 | Y -0.162 | Q -0.251 | P -0.817 | C -0.748 | K 0.101 | A -0.142 | N -0.354 | I -0.325 | G -0.591 | T -0.705 | L -0.145
F53: G -0.213 | A -0.282 | T -0.247 | E 0.221 | N -0.073 | C -0.029 | K 0.031 | V -0.363 | Y -0.027
E4: W -0.811 | L -0.371 | Y -0.777 | A -0.286
E21: K 0.809 | T 0.212 | Q 0.137 | Y 0.385 | H 0.155 | I 0.245 | R 0.508
D35: G -0.182 | H 0.087 | F -0.311
F15: C -0.035 | D -0.465 | N 0.05 | E -0.029 | W -0.311 | S 0.088
E13: G -0.576 | Y -0.012 | R -0.408
K20: S -0.332 | W -0.536 | A 0.07
D33: H -0.283 | N -0.367 | I -0.821
